# Results reported in article PMC6644640.
# Molecular target: prostate-specific antigen (PSA), enzymatically active, from human seminal fluid (human, UniProt P07288 25-261)
# Assay: chemiluminescence sandwich assay on Si NW surface
# Sequence of prostate-specific antigen (PSA), enzymatically active, from human seminal fluid (P07288 25-261): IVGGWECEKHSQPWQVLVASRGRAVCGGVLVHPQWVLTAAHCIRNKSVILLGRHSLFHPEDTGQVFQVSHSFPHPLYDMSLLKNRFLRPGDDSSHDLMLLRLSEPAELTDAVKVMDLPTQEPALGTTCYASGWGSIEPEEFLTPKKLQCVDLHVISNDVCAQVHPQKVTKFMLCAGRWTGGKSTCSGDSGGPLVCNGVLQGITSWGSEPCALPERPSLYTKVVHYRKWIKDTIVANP
binder,measurement,value
"AAAAATTAATTTCGAGCGGTAGTTTATCGAAA (ssDNA, 5'-H3N-(CH2)6) [nonspecific aptamer (32 nt control)]",binding result,no binding
